Results taken from paper PMC3420232.

Molecular target: wild-type human TRAILR1 (human), O00220
Test: radioligand binding; competition on cells: 4x10^5 murine fibroblasts expressing the (chimeric) TRAIL receptor in PFA (PBS, 2% FCS, 0.002% sodium azide), 83 ng/ml 125I-TRAIL with or without unlabeled recombinant human TRAIL (83-5300 ng/ml), 4 hours on ice; cells spun through phthalate oil; 68 kDa used for TRAIL
Settings: remark: other sources report otherwise

IC50: 17.7 nM
B1: Flag-tagged recombinant human TRAIL (sTRAIL), unlabeled, P50591 95-281 (ligand)
chain: TSEETISTVQEKQQNISPLVRERGPQRVAAHITGTRGRSNTLSSPNSKNEKALGRKINSWESSRSGHSFLSNLHLRNGELVIHEKGFYYIYSQTYFRFQEEIKENTKNDKQMVQYIYKYTSYPDPILLMKSARNSCWSKDAEYGLYSIYQGGIFELKENDRIFVSVTNEHLIDMDHEASFFGAFLVG
